Data taken from publication PMC6530869.

Legend:
Settings in all cases: SpdR and RtrB: 20 mM HEPES pH 7.8, 4 mM MgCl2, 37 mM KCl, 1 mM CaCl2, 0.75 mM DTT, 8% glycerol, 75 ug/ml BSA; RtrA: 10 mM Tris pH 7.6, 2 mM MgCl2, 50 mM KCl …
[1] = biological target: T1, SpdR(D64E) D64E (Caulobacter crescentus (NA1000?)) (UniProt A0A0H3C6B9); test: EMSA
T1 sequence: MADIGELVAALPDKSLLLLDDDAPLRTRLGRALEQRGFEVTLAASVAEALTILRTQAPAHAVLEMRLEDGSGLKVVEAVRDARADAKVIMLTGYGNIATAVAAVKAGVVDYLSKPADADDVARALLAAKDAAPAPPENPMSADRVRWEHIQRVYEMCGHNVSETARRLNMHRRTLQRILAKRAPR

[2] = biological target: T2, RtrB (Caulobacter crescentus (NA1000?)) (UniProt A0A0H3C9Q5); test: EMSA
T2 sequence: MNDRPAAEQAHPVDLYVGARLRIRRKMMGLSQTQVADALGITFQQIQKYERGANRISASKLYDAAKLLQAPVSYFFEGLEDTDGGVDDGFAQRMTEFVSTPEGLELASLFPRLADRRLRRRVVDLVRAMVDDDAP

[3] = biological target: T3, RtrA (Caulobacter crescentus (NA1000?)) (UniProt A0A0H3CB76); test: EMSA
T3 sequence: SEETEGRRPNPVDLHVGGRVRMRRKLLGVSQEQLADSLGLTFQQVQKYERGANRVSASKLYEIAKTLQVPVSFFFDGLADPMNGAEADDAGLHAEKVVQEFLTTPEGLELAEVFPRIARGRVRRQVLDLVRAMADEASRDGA

[4] = biological target: T2, RtrB (Caulobacter crescentus (NA1000?)); test: competition
[5] = biological target: T3, RtrA (Caulobacter crescentus (NA1000?)); test: competition

Row | Sequence | binding [1] | binding [2] | binding [3] | binding [4] | binding [5]
1 | CTAGGGACTGCCATCTTCGGCTGTATTTCAGATTTGTTTCCGCATTGTGGCTGCGACGAAATGTCGCGGTACCCGCTTGTGCGCTGTTTTGACGCGATTTCGTCATTGACGGCTCTCCTCACGCGAGAACACTGTTCTTGTAGTGCTTGCTCCGATGGGCTGATTGGGCAAGCCAGAGGGGTGGGATGTCTGGTTACGA (double strand) [cspD promoter probe] | binds |  |  |  | 
2 | TGGTGGTCCTGATCCTCCTGCAGCGACCGATCGTGCATCGCGCGCTGGTTCCCGCGCTCCTGCTCGCCTGGCTGGTCCTGAACGGGACGGACGTGATGCACTACAGCTAGGGCTCGGCGGCTCTGGTAAACAACCCAACCCCGATCAACGAAGGTTTAGAAAGCTTTAAGAGAAACGTTGCGAATTGTAAAATTCTTCTCTGGGTTGAAACCCATTTCGGGTGTATCGATGAGGTGTCGGGCCATTTATTGAGCGCGGACAGGATGTTGTCAGTG (double strand) [hfiA promoter probe] | no binding | binds | binds |  | 
3 | TGGTGGTCCTGATCCTCCTGCAGCGACCGATCGTGCATCGCGCGCTGGTTCCCGCGCTCCTGCTCGCCTGGCTGGTCCTGAACGGGACGGACGTGATGCACTACAGCTAGGGCTCGGCGGCTCTGGTAAACAACCCAACCCCGATCAACGAAGGTTTAGAAAGCTTTAAGAGAAACGTTGCGAATTGTAAAATTCTTCTCTGGGTTGAAACCCATTTCGGGTGTATCGATGAGGTGTCGGGCCATTTATTGAGCGCGGACAGGATGTTGTCAGTG (double strand) [unlabeled specific hfiA competitor] |  |  |  | binds | binds
